The record followed here is patent EP4755372A1, “POLYMERIC MICELLE […] POLYMER CHAIN OF SELF-A[…]” (INSTITUTE OF SCIENCE TOKYO, priority 2023, dated 2025).

The nature of data set [1]: Relaxivity measurement (r1, r2), 0.47T NMR. The note with it: compared with Gd-DOTA, 37°C. In kind it is physicochemical. The method, then: Different polymer samples (Gd conc. 1 mM, 0.5 mM, 0.25 mM and 0.125 mM) were prepared, and the longitudinal relaxation time T1 and transverse relaxation time T2 were measured for each concentration. Using the obtained results, a plot of Gd concentration with respect to obtained relaxation time was drawn, and the longitudinal relaxivity r1 and transverse relaxivity r2 were derived from the slope of the fitted curve, based on the following formula. Here, (1/Ti)obs represents the measured relaxation time, and (1/Ti)d represents the relaxation time of the solvent. (1/Ti)obs = (1/Ti)d + ri [Gd]. i = 1, 2 [formula]
• Apparatus: Bruker minispec 0.47T NMR/Bruker • Solvent: Ultrapure water or BSA (10 mg/mL)-dissolved ultrapure water • Measuring conditions: Temperature: 37°C, receiver gain = 80-82, recycle delay = 2. • Results: Table 22

Data set [2] in a line: Pharmacokinetics test in CT26 tumor-bearing mice, Gd concentration by ICP-MS. In kind it is in vivo. The note with it: caudal vein, Gd conc. 5 mg/kg; for blood retentivity and blood clearance: CT26 tumor-bearing mice; for accumulation in different organs: liver, spleen, kidneys, brain, muscle, pancreas; for tumor accumulation (Gd concentration): 24-48 hours after administration for SMDC-Gd4. How it is done:
A tumor-bearing model was prepared by subcutaneously transplanting CT26 mouse colorectal cancer cells into mice (Balb/c, 6-week-old, female, SLC), and the model was used for pharmacokinetics testing. A cell suspension that had been subcultured (5% CO2, 37°C) using DMEM medium (containing 10% FBS and 1% penicillin streptomycin) was subcutaneously injected into the mouse dorsal region (1 × 10^6 cells/mouse, DMEM). At 10 days after administration, the tumor size was randomized and each sample was administered to the mouse through the caudal vein (Gd conc. 5 mg/kg, n = 6). After administration, blood was collected and the organs (tumors, liver, spleen, kidneys, pancreases, skin, muscles and brains) were dissected after specified time periods (1, 4, 8, 24 and 72 hours). After sampling, the plasma was collected by centrifugal separation of the blood to prepare a sample. The collected organs were pretreated (heated at 70% nitric acid, heating at 90°C for ≥1 hour, followed by dilution with ultrapure water), and the Gd concentration was measured using ICP-MS.
• Apparatus: Agilent 7700x ICP-MS/Agilent • Pretreatment apparatus: EYELA MG-2300/Tokyo Rikakikai Co., Ltd. • Standard solution: Gadolinium standard solution (Gd1000) for ICP analysis/FujiFilm-Wako • Results: Figs. 18 to 25

Data set [3] is described as follows: SAXS measurement (Guinier plot particle size, Kratky plot). The settings on record: SAXS in aqueous solution, 10 mg/ml. In kind it is physicochemical. The method, then:
(§1) For the previously obtained BZAm-PEGAn-CEAk(DOTA)j and PEGAn-CEAk(DOTA)j, the particle size was confirmed by Guinier plot in small angle x-ray scattering (SAXS), and SMDC formation was confirmed by Kratky plot. The particle size was also measured by transmission electron microscopy (TEM) and dynamic light scattering. The surface potential was also measured.
• Apparatus: nano-viewer SAXS system/Rigaku Corp. • Solvent: Ultrapure water or DMF • Sample concentration : 10 mg/ml • Measuring temperature: room temperature • Results: Fig. 12 and Fig. 13

A short description of data set [4]: Zeta potential (surface potential) measurement. In kind it is physicochemical. The settings on record: for surface charge (zeta potentials): ultrapure water. The method, then:
as §1
• Apparatus: Malvern Zetasizer Nano ZSP/Malvem Panalytical • Solvent: Ultrapure water • Sample concentration : 10 mg/ml • Measuring temperature: room temperature • Results: Fig. 16 and Fig. 17

Data set [5] can be described thus: Evaluation of SMDC formation: DA from SEC-MALS in PBS and chloroform. The settings on record: DA = MwPBS/MwCHCl3; 5 mg/mL, 40°C. In kind it is physicochemical. The method, then:
The foldability in water of BZAm-PEGAn-CEAk(DOTA)j obtained by the procedure described above was evaluated by comparing the absolute weight-average molecular weight Mw calculated from size exclusion chromatography in aqueous solution (PBS) and in an organic solvent (chloroform or DMF) and a system utilizing a multi-angle light scattering detector (SEC-MALS). Data obtained from SEC-MALS were analyzed using a Zimm plot, with dn/dc being the value calculated by measuring the refractive index of 4 different samples with different concentrations in each solvent (4, 3, 2 and 1 mg/mL). DA was calculated by the following formula. DA = MwPBS/MwCHCl3
• Apparatus: JASCO Extrema HPLC system (LC-Net II/ADC, Co-4060, AS-4050, PU-4180/JASCO Corp. • Detector: UV-4070/JASCO Corp., RI-4030/JASCO Corp., DAWN 8 MALS detector/Wyatt Technology Corporation • Column: OHpak SB-804HQ column/Showa Denko K.K. • (column size: 8 mm × 300 mm, pore size: 20 nm, particle size: 10 µm, exclusion limit: 1 × 10^6 g/mol) • OHpak SB-806 MHQ column/Showa Denko K.K. • (column size: 8 mm × 300 mm, pore size: 1.5 µm, particle size: 13 µm, exclusion limit: 2 × 10^7 g/mol) • OHpak SB-G 6B Guard column/Showa Denko K.K. • Mobile phase: 137 mM NaCl, 2.7 mM KCl, 11.9 mM phosphate buffer (PBS), pH 7.4 Temperature: 40°C • Flow rate: 1 mL/min • Sample concentration : 5 mg/mL • Results: Table 21
• Apparatus: TOSOH HLC-8220 GPC system/Tosoh Corp. • Detector: DAWN HELEOS II MALS detector/Wyatt • Column: LF-804 column/Showa Denko K.K. • (column size: 8 mm × 300 mm, pore size: 300 nm, particle size: 6 µm, exclusion limit: 2 × 10^6 g/mol) • LF-G guard column/Showa Denko K.K. • Mobile phase: chloroform • Temperature: 40°C • Flow rate: 1 mL/min • Sample concentration : 5 mg/mL • Results: Table 21
(In general: In gel filtration, larger molecules generally elute earlier.)

Data set [6] relates to CT26 mouse colorectal cancer cells. Kind of data set: Gd-NCT experiment (neutron irradiation of CT26 tumor-bearing mice). In kind it is in vivo. The settings on record: 3 administrations, Gd conc. 0.1 mmol/kg, neutron irradiation 10 minutes. How it is done:
A tumor-bearing model prepared by subcutaneously grafting CT26 mouse colorectal cancer cells into mice (Balb/c, 6-week-old, female, SLC) was used in an experiment for Gd-NCT. A CT26 cell suspension was injected into the mouse right femoral region (2 × 10^5 cells/mouse, DMEM). After approximately 2 weeks, each sample was administered 3 times through the caudal vein of the mouse (after 0, 24 and 48 hours, Gd conc. 0.1 mmol/kg, n = 5). A PBS-administered group was used as a comparative control. At 72 hours after the first administration, the holder in which the mouse had been placed was set on a 5 mm-thick thermoplastic sheet containing 40 wt% ^6LiF (96% ^6Li) for shielding of thermal neutrons and irradiated with neutron rays for 10 minutes only at the tumor site of the right femoral region (5 MW, Kyoto University Research Reactor, fluence: 2.87 × 10^12 to 3.29 × 10^12 thermal neutron/cm^2, 5.10 × 10^11 to 5.86 × 10^11 epithermal neutron/cm^2). The antitumor effect was confirmed by time-dependent change in tumor volume, and toxicity was confirmed by change in mouse body weight.

A short description of data set [7]: Pharmacokinetics test for Gd-NCT (single or 3 administrations), Gd by ICP-MS. In kind it is in vivo, mice. How it is done:
A tumor-bearing model was prepared by subcutaneous grafting of CT26 mouse colorectal cancer cells into mice (Balb/c, 6-week-old, female, SLC) by the same procedure as for the SMDC-Gd pharmacokinetics test, and a pharmacokinetics test was conducted as an experiment for Gd-NCT. In this case, however, each sample was administered once or 3 times through the caudal vein of the mouse (0, 24 and 48 hours afterwards, Gd conc. 0.1 mmol/kg, n = 5), with blood collection and organ dissection and collection (tumors, liver and kidneys) 24 hours after the final administration. Each organ was pretreated by the same procedure as described above, and the Gd concentration was also measured in the same manner using ICP-MS. • Apparatus: Agilent 7700x ICP-MS/Agilent • Pretreatment apparatus: EYELA MG-2300/Tokyo Rikakikai Co., Ltd. • Standard solution: Gadolinium standard solution (Gd1000) for ICP analysis/FujiFilm-Wako • Results: Fig. 46 and Fig. 47

A short description of data set [8]: TEM particle size measurement. In kind it is physicochemical. The settings on record: by folding; method not given. How it is done:
as §1
• Apparatus: JEM-2100F TEM system/JEOL Corp. • Solvent: Ultrapure water • Pretreatment: Stained on formvar/carbon supported-copper grids • Measuring temperature: room temperature • Results: Fig. 14 and Fig. 15

In data set [9] the test system is CT26 mouse colorectal cancer cells. Description: MRI R1 mapping in CT26 tumor-bearing mice. The settings on record: for tumor/muscle ratio (T/M ratio) of the relaxation rate: Gd conc. 0.1 mmol/kg. In kind it is in vivo. The method, then: CT26 mouse colorectal cancer cells were subcutaneously grafted into mice (BALB/c nu/nu mice, 5-week-old, female, SLC) to create a tumor-bearing model which was used for MRI. A CT26 cell suspension that had been subcultured (5% CO2, 37°C) using DMEM medium (containing 10% FBS and 1% penicillin streptomycin) was subcutaneously injected into the mouse dorsal region (1 × 10^6 cells/mouse, Hank's balanced salt solution). At 1 week after administration, the tumor size was randomized, and then each sample was administered to the mouse through the caudal vein (Gd conc. 0.1, 0.05, 0.03 and 0.01 mmol/kg). MRI imaging (R1 mapping, T1-weighted image) was carried out under isoflurane anesthesia.
• Apparatus: Horizontal 1.0 T Bruker ICON MRI system/Bruker • Pulse sequence: Rapid acquisition with relaxation enhancement (RARE)-based inversion recovery sequence • Measuring conditions: Echo time (TE) = 10 ms; [formula] Repetition time (TR) = 10,000 ms; [formula] [formula] RARE Factor = 4; [formula] Field of view (FOV) = 28.0 × 16.0 mm^2; [formula] Slice thickness = 2.0 mm; [formula] Pixel count = 70 × 40; [formula] Resolving power (in-planeresolution) = 0.4 × 0.4 mm^2 [formula] Number of excitations = 1; [formula] • Fat suppression mode: OFF; • FOV saturation: ON • Measuring points: Before administration and 20, 40, 60 minutes and 24 hours after administration • Results: Figs. 38 to 42

Setting [10] is: 3 doses given every 24 hours, after the final 24 hours.

Turning to PEGA104-CEA30(DOTA)12 [PEGA-Gd12], the “longitudinal relaxivity (r1)” value in data set [1] is “higher”.
As to BZA100-PEGA70-CEA30(DOTA)17 [TP6], in data set [2], the “blood retentivity and blood clearance” value is “more rapid”; the “accumulation in different organs” value is “accumulated more abundantly in the liver, spleen and kidneys”. In addition, the “Kratky plot (particle formation)” value in [3] is listed as “form particles in aqueous solution”. For the same compound, the “longitudinal relaxivity (r1)” value in [1] is “higher”. Also, in data set [4], the zeta potential is on record as -37 mV and the “surface charge (zeta potentials)” value is listed as “negative”. The DA in data set [5] is 0.53.
Take BZA100-PEGA90-CEA10(DOTA)4 [TP4]: in data set [2], the “blood retentivity and blood clearance” value is recorded as “equivalent”; the “tumor accumulation (Gd concentration)” value was “at least twice that of SMDC-Gd17 and PEGA-Gd4”; the “accumulation in different organs” value was “equivalent to typical nanomedicine”. Besides, the “Kratky plot (particle formation)” value in [3] is given as “form particles in aqueous solution”. In data set [1], the “longitudinal relaxivity (r1)” value was “higher”. For the same compound, in data set [4], the “surface charge (zeta potentials)” value was “negative”. In [6], the “antitumor effect by Gd-NCT (tumor volume)” value is “suppressed tumor growth” and the “change in body weight after Gd-NCT” value is on record as “without body weight loss”. In [7] (setting [10]), the “intratumoral Gd concentration” value is 91.2 ppm and the “intratumoral concentration in terms of ^157Gd groups” value is given as 14.3 ppm. For the same compound, the “intratumoral concentration in terms of ^157Gd groups” value in data set [7] (single dose, 24 hours after injection) amounted to 6.4 ppm. For the same compound, in data set [7] (single dose, 24 hours after injection, Gd conc. 0.1 mmol/kg), the “intratumoral Gd concentration” value is on record as 41.2 ppm. The diameter result in data set [8] was “about 6 nm”. The “tumor/muscle ratio (T/M ratio) of the relaxation rate” value (“tumor/muscle ratio (T/M ratio)” below) in data set [9] (1 hour after administration) was found to be 1.17. Besides, the “contrast effect in tumor tissue” value in [9] (longitudinal relaxation rate of tumors) is on record as “high contrast effect”. For the same compound, in [9] (within 24 hours after administration), the “tumor/muscle ratio (T/M ratio)” value is given as 1.36. This compound showed a DA in data set [5] of 0.91.
PEGA124-CEA10(DOTA)4 [PEGA-Gd4]: the “blood retentivity and blood clearance” value in data set [2] is “equivalent”. For the same compound, the “Kratky plot (particle formation)” value in data set [3] is on record as “no peak could be confirmed”. For the same compound, the “longitudinal relaxivity (r1)” value in data set [1] is listed as “higher”. The “surface charge (zeta potentials)” value in data set [4] was “negative”. The R1 value result in [9] (during the 24 hours, compared with SMDC-Gd4) is recorded as “consistently lower than SMDC-Gd4”.
For the compound `O=C([O-])CN1CCN(CC(=O)[O-])CCN(CC(=O)O)CCN(CC(=O)[O-])CC1.[Gd+3]` [Gd-DOTA, gadoteric acid], in data set [2], the “blood retentivity and blood clearance” value is on record as “rapidly excreted from the blood”; the “tumor accumulation (Gd concentration)” value is “low”. Besides, the “antitumor effect by Gd-NCT (tumor volume)” value in data set [6] was “failed to exhibit sufficient antitumor activity”. In data set [9] (1 hour after administration), the “tumor/muscle ratio (T/M ratio)” value is reported as 0.77.
With BZA100-PEGA80-CEA20(DOTA)9 [TP5], the “Kratky plot (particle formation)” value in data set [3] was “form particles in aqueous solution”. Further, the “longitudinal relaxivity (r1)” value in data set [1] is “higher”. Besides, the DA in data set [5] was 0.88.
